Assay results published in US20240352118A1.

Columns and labels:
[1] = target: cynomolgus TIGIT-his protein (cynomolgus monkey); assay: BLI (ForteBio), IgG on AHQ sensor, 100 nM TIGIT-his, monovalent, 1:1 model
[2] = target: human TIGIT-his protein (human) (UniProt Q495A1); assay: as above
[3] = target: cynomolgus TIGIT on cells (cynomolgus monkey); assay: flow cytometry on CHO-cynoTIGIT cells
[4] = target: human TIGIT on cells (human) (UniProt Q495A1); assay: flow cytometry on CHO-huTIGIT cells
[5] = target: human TIGIT on cells (human) (UniProt Q495A1); assay: flow cytometry, blocking of human CD155-mouse IgG2a Fc (2 ug/mL) binding to CHO-huTIGIT cells
[6] = target: human TIGIT on cells (human) (UniProt Q495A1); assay: flow cytometry on activated human primary T cells (CD3/CD28 beads + IL-2, 48 h), fluorescent secondary antibody; y axis Positive cells(%), x axis Concentration(nM); EC50 from the table drawn under the curves

Chain of human TIGIT on cells (human) (Q495A1 22-244): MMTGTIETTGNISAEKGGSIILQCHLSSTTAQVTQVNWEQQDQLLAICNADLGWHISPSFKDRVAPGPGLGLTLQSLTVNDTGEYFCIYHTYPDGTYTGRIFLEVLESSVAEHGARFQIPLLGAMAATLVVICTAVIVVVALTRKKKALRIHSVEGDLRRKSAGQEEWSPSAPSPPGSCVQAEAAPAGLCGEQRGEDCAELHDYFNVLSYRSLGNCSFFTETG
Chain of cynomolgus TIGIT on cells (cynomolgus monkey) (chain, as listed by the source): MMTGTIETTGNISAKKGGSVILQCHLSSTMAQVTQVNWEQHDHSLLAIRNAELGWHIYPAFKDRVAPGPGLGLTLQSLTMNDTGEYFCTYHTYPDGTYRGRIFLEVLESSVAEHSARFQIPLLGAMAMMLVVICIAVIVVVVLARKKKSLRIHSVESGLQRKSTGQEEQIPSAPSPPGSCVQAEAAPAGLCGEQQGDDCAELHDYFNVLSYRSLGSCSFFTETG
Chain of human TIGIT-his protein (human) (Q495A1 22-141): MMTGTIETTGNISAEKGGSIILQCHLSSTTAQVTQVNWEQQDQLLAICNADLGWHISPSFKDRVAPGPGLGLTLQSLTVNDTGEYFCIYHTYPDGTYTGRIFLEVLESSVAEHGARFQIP
Chain of cynomolgus TIGIT-his protein (cynomolgus monkey) (chain, as listed by the source): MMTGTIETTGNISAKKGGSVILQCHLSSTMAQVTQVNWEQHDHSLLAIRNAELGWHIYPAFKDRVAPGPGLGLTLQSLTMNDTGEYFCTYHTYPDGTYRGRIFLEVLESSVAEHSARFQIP

Kd [1]: 3.5 nM
Kd [2]: 0.87 nM
EC50 [3]: 4.18 nM
EC50 [4]: 1.35 nM
IC50 [5]: 0.63 nM
EC50 [6]: 0.274 nM
Substance: Tiragolumab (antibody)
